Here are results for 14 sequences from the supplement of paper PMC12764529.

± gives the half width of the 95% confidence interval.

Series [1] in a line: folding stability dG unfold (combined trypsin and chymotrypsin); higher = more stable. In a few lines:
(§1)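 Unfolding free energy was derived, per protease or combined, by relating Bayesian-fitted K50 values from sequencing counts to a sequence-predicted unfolded-state K50 and a shared folded-state K50. The underlying digests exposed cysteine-free mini-proteins under 80 residues, in a PA-tagged cDNA display construct, to trypsin and chymotrypsin at 11 threefold-diluted concentrations and to a no-protease condition. A filter kept only designs with AlphaFold2 dimer inter-PAE above 15.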

Series [2] in a line: folding stability dG unfold from trypsin proteolysis; higher = more stable. In a few lines: as §1
A short description of series [3]: folding stability dG unfold from chymotrypsin proteolysis; higher = more stable. In a few lines: as §1

For “SAGGSAGGSAGSMLLSLSIASVETTETTEIDPETGEKRKVTTTTITIPGTGQTITLTETVESAGGSAGGSAG [r3_424_JUSTAS]”, the results for the “folding stability dG unfold” value in series [1], in series [2] and in series [3] were 1.28 ± 0.065 kcal/mol, 1.83 ± 0.058 kcal/mol and 0.532 ± 0.07 kcal/mol, respectively.

As for “SAGGSAGGSAGSMSVSVTKLPNGDYVVTTTTSETSTSTTGSTPVTTTTTTTTVTTLPSSSSAGGSAGGSAGG [r17_432_JUSTAS]”, the “folding stability dG unfold” value in series [1] is 1.57 ± 0.046 kcal/mol; in series [2] it was 2.21 ± 0.048 kcal/mol; in series [3] it was 0.775 ± 0.023 kcal/mol.

For the sequence “SAGGSAGGSAGSMSVTLSTTVEVTVEPLPDYTIVTVTTTTTFPDGSTTTTVTTTPVPPDLGSAGGSAGGSAG [r3_330_JUSTAS]”, the “folding stability dG unfold” value amounted to 1.68 ± 0.22 kcal/mol in series [1], 0.957 ± 0.24 kcal/mol in series [2] and 1.8 ± 0.15 kcal/mol in series [3].

“SAGGSAGGSAGSMTLSTSTSTTPTSLTTTTTTTTYDPTTGTTTTTSTTTTTALPAAPPSSTASAGGSAGGSA [r18_16_JUSTAS]”: the “folding stability dG unfold” value in series [1] came to 1.37 ± 0.13 kcal/mol; in series [2] it was 0.0685 ± 0.064 kcal/mol; in series [3], 1.64 ± 0.03 kcal/mol.

For the sequence “SAGGSAGGSAGSMTPAEEKAREVEERLRREHPEFERVFVRVKEFRPETGEVTIEVEVEPRSAGGSAGGSAGG [r11_617_JUSTAS]”, the entries for the “folding stability dG unfold” value in series [1], in series [2] and in series [3] were -0.0464 ± 0.12 kcal/mol, 0.292 ± 0.061 kcal/mol and -0.641 ± 0.27 kcal/mol, respectively.

In the case of “SAGGSAGGSAGSMTSISVDVPVPGKNVVTVTVTLPPNTTTVTITVEPLPNGELKVTVETSSAGGSAGGSAGG [r11_657_JUSTAS]”, the “folding stability dG unfold” value in series [1] came out at 2.78 ± 0.1 kcal/mol; in series [2], 2.89 ± 0.07 kcal/mol; in series [3], 2.5 ± 0.061 kcal/mol.

Regarding “SAGGSAGGSAGSMTVTLTITDPRNSATTTYTVPSSNYEEFLKANPEIEKNGWTVTVDTNGSAGGSAGGSAGG [r17_176_JUSTAS]”, the figures for the “folding stability dG unfold” value in series [1], in series [2] and in series [3] were 1.05 ± 0.13 kcal/mol, 1.15 ± 0.044 kcal/mol and 0.903 ± 0.15 kcal/mol, respectively.

Consider “SAGGSAGGSAGSPDRPRRVEPVPVVTYKDPDLGKEFTSPEEIEKTKEELEKKGLSVEVSASAGGSAGGSAGG [r17_289_JUSTAS]”, for which the “folding stability dG unfold” value was 0.289 ± 0.15 kcal/mol in series [1], -0.209 ± 0.13 kcal/mol in series [2] and 0.482 ± 0.1 kcal/mol in series [3].

In the case of “SAGGSAGGSAGSPVVTTEKVKTEGNTTVYRVTEPALNTETLVTEDAGANPTIKTTTYNTPSAGGSAGGSAGG [r11_738_JUSTAS]”, the results for the “folding stability dG unfold” value in series [1], in series [2] and in series [3] were -0.747 ± 0.24 kcal/mol, -0.955 ± 0.21 kcal/mol and -0.937 ± 0.83 kcal/mol, respectively.

Regarding “SAGGSAGGSAGSTVTLELEIDGVRITVKAELTPDGELRLTITEVEVLPPPPVVHPDDPEALKSAGGSAGGSA [r18_176_TrROS_Hall]”, the “folding stability dG unfold” value in series [1] turned out to be 1.33 ± 0.11 kcal/mol; in series [2], 1.54 ± 0.049 kcal/mol; in series [3] it was 1.1 ± 0.064 kcal/mol.

For “SAGGSAGGSAGSTVTLTVDPDTNVATLTAIIGGKPVTATLTFIPNTGKARLPDGTWIDISSAGGSAGGSAGG [r11_395_TrMRF]”, the “folding stability dG unfold” value in series [1] was found to be 1.28 ± 0.069 kcal/mol; in series [2] it was 1.43 ± 0.034 kcal/mol; in series [3], 1.03 ± 0.051 kcal/mol.

In the case of “SAGGSAGGSAGSVTVTFISLEEGERYLVLTELRFGDYGIESRSTRIEVSDEKLEELKKAFSAGGSAGGSAGG [r11_47_TrMRF]”, the “folding stability dG unfold” value was determined as 2 ± 0.12 kcal/mol in series [1], 1.52 ± 0.072 kcal/mol in series [2] and 2.12 ± 0.036 kcal/mol in series [3].

For the sequence “SAGGSAGGSAGSVTVTLSSDPDKTFTVTLPGGETVTFQPTPTNQVTVTVTSPTTPVTVTVSSAGGSAGGSAG [r3_334_JUSTAS]”, the “folding stability dG unfold” value in series [1] was determined as 1.43 ± 0.096 kcal/mol; in series [2], 1.96 ± 0.074 kcal/mol; in series [3] it was 0.636 ± 0.084 kcal/mol.

“SAGGSAGGSAGSYTVTPITLKLPDGTEVDAVLTTDPAGNVTLTLTGDSPLSTLTFPASTLSAGGSAGGSAGG [r11_327_JUSTAS]”: the “folding stability dG unfold” value was determined as 1.18 ± 0.049 kcal/mol in series [1], 0.119 ± 0.026 kcal/mol in series [2] and 1.6 ± 0.039 kcal/mol in series [3].
